Publication doi:10.1101/2022.06.21.496751 (bioRxiv, 2022)

B1: Ab159 recombinant monoclonal antibody (IgG) (antibody, V domains shown)
VH: QVQLVESGGGLVKPGGSLRLSCAASGFTFNNAWMSWVRQAPGKGLEWVGRIKSKTDGGTTDYAAPVKGRFTFSRDDSKNTLYLQMSSLKTEDTALYYCTTADYDILTGTPASPYWGQGTLVTVSS
VL: DIQMTQSPSSLSASVGDRVTITCRASQSITNYLNWYQQKPGKAPKFLIYAASSLQGGVPSRFRGSGSGTDFTLTISSLQPEDFATYYCQQTYSTLWTFGQGTKVEIK
B2: Ab445 recombinant monoclonal antibody (IgG) (antibody, V domains shown)
VH: EVQLVESGGGVVQPGTSPRLSCAASGFTFSNSGMHWVRQAPGKGLEWVAVIWYDGSKKYYVDSVKGRFTISRDNSKNTLYLQMNSLRAEDTAVYYCARDGTVAVRGVMNPFFDYWGQGTLVTVSS
VL: DIQLTQSPSSLSASVGDRVTITCQASQDISNYLNWYQQIPGKAPKLLIYDASNLETGVPSRFSGSGSGTDFTFTISSLQPEDIATYYCQQYDNLPYTFGQGTKLEIK
B3: Ab354 recombinant monoclonal antibody (IgG) (antibody, V domains shown)
VH: QVQLVQSGAEVKKPGASVTVSCKASGFLFTGYYMHWVRQAPGQGLEWMGWINPNSGASNYTRKFQGRVTMTRDTSISATYMKLSRLTSDDTAVYYCARDLAFSMVRGALDYWGQGTLVTVSS
VL: QLVLTQPPSASGSPGQSVTISCTGTSSDVGGYNYVSWYQHHPGKAPKLMIYEVSKRPSGVPDRFSGSKSGNTASLTVSGLQAEDEADYYCNSYAGNNNWVFGTGTKVTVL
B4: Ab496 recombinant monoclonal antibody (IgG) (antibody, V domains shown)
VH: EVQLVQSGPEVKKPGTSVKVSCKASGFIFTNSAVQWVRQARGQRLEWIGWIVVGSGNPNYAQKFQERVTITRDRSTSTAYMELSSLTSEDTAVYYCAAFPYYYDNSGSGPWGQGTLVTVSS
VL: DIQLTQSPSSLSASVGDRVTITCQASQDIRNNLNWYQQIPGKAPKLLIYDASNLETGVPSRFSGSASGTDFTFTISSLQPEDVATYYCQQYANLPPFTFGPGTKVDIK
B5: Ab326 recombinant monoclonal antibody (IgG) (antibody, V domains shown)
VH: EVQLVESGGGVVQPGRSLRLSCAASGFTFSHYPMHWVRQAPGRGLEWVAVISYDGSNQHYVDSVKGRFTISRDNSKNTLYLQMNSLRAEDTAVYFCASLITMIRGVPDYWGQGTLVTVSS
VL: DIQMTQSPSSLSASVGDRVTITCRASQSISNYLNWYQQKPGKAPNLLIFAASSLQSGVPSRFSGSGSGTEFTLTISSLQPEDFAAYYCLQTYSTPRTFGQGTRLEIK
B6: Ab188 recombinant monoclonal antibody (IgG) (antibody, V domains shown)
VH: EVQLVESGGGLVQPGGSLRLSCAASGFTFINYKMNWVRQAPGKGLEWVSYISSGSDAIYYADSVKGRFTISRDNAKNSLYLQMNSLRDEDTALYYCARGGGYNYGECMDVWGQGTTVTVSS
VL: not shown

molecular target: full-length Spike of SARS-CoV-2 (UniProtKB-P0DTC2) expressed on 293T cells (SARS-CoV-2, UniProt P0DTC2); experiment: flow cytometry on cells

Binder	binding result
B1	binds
B2	binds
B3	binds
B4	binds
B5	binds
B6	binds

molecular target: Spike of the SARS-CoV-2 Omicron (BA.1) variant expressed on 293T cells (SARS-CoV-2, Omicron BA.1, strain); experiment: flow cytometry on cells

Binder	binding result
B6	binds
